Literature values, collected in publication PMC6173998.
Like-named read-outs stand apart in the source and are kept apart here.

Experiments:
Aprotinin (Bos taurus) = Aprotinin (Bos taurus) (UniProt P00974)
[1] = molecular target: KD APPH Kunitz domain (Homo sapiens) (UniProt Q06481)
[2] = molecular target: Protease nexin-2 (Homo sapiens) (UniProt P05067)
[3] = molecular target: Placental bikunin (Homo sapiens) (UniProt O43291)
[4] = molecular target: Tissue factor pathway inhibitor-2 (KD1-WT) KD1 (Homo sapiens) (UniProt P48307)
[5] = molecular target: Corn Hageman factor inhibitor (Zea mays) (UniProt P01088)
[6] = molecular target: KD APPH Kunitz domain (Homo sapiens) (UniProt Q06481); remark: listed apart in the source
[7] = molecular target: KD APPH Kunitz domain (Homo sapiens) (UniProt Q06481); remark: listed apart in the source
[8] = molecular target: KD APPH Kunitz domain (Homo sapiens) (UniProt Q06481); remark: listed apart in the source
FXIa (Homo sapiens) [9] = molecular target: FXIa (Homo sapiens) (UniProt P03951)
FXIa (Homo sapiens) [10] = molecular target: FXIa (Homo sapiens) (UniProt P03951); remark: listed apart in the source
FXIa (Homo sapiens) [11] = molecular target: FXIa (Homo sapiens) (UniProt P03951); remark: listed apart in the source
FXIa (Homo sapiens) [12] = molecular target: FXIa (Homo sapiens) (UniProt P03951); remark: listed apart in the source

KD APPH Kunitz domain (Homo sapiens), sequence (Q06481 306-364): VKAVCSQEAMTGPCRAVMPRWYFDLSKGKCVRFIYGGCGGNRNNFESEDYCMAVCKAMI
TFPI-2 (KD1-WT) KD1, sequence (P48307 36-86): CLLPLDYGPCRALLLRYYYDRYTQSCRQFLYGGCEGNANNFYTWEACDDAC
Tissue factor pathway inhibitor-2 (KD1-WT) KD1 (Homo sapiens), sequence (P48307 36-86): as above
Plasmin, sequence (P00747 581-810): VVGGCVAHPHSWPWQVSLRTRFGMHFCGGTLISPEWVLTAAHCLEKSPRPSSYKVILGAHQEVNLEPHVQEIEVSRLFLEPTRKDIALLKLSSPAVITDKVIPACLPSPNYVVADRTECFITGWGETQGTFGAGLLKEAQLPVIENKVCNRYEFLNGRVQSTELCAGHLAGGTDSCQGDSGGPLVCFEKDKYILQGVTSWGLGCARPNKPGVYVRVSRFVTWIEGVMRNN
Plasma kallikrein, sequence (P03952 391-638): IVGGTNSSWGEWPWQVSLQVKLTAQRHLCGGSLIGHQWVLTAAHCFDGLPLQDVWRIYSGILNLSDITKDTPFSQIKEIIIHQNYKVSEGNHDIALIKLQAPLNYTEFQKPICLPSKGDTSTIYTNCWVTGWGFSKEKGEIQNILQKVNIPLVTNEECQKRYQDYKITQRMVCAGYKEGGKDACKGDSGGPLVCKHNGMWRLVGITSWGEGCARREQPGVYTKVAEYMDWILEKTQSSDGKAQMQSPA
corn Hageman factor inhibitor, sequence (P01088 29-138): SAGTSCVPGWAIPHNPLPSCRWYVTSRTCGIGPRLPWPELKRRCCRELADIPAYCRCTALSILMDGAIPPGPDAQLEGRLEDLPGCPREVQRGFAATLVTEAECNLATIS
Corn Hageman factor inhibitor (Zea mays), sequence (P01088 29-138): as above
Protease nexin-2 (Homo sapiens), sequence (P05067 18-687): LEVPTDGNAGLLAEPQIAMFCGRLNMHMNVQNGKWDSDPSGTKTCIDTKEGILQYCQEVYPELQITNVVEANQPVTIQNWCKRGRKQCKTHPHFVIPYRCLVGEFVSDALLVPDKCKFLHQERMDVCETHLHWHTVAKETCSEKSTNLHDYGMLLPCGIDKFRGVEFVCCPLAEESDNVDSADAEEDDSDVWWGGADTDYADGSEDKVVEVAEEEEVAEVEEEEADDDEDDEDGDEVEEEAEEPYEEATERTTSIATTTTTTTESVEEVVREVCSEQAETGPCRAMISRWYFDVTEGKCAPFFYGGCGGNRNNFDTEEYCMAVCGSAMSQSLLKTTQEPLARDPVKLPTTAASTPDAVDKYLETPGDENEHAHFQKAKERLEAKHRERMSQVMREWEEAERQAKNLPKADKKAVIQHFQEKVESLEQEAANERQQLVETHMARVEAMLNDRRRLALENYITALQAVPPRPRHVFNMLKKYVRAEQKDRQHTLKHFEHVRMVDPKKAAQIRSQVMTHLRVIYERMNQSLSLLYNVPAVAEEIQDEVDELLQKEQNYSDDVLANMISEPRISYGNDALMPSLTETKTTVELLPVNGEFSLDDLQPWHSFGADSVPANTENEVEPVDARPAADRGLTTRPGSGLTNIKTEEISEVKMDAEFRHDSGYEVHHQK
protease nexin-2, sequence (P05067 18-687): as above
placental bikunin, sequence (O43291 28-197): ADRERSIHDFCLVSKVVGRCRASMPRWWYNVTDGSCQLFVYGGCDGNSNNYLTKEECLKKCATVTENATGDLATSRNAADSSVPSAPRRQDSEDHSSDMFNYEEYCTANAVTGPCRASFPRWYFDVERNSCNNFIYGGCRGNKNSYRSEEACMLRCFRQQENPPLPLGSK
Placental bikunin (Homo sapiens), sequence (O43291 28-197): as above

For Factor XIa (from UniProt P03951), the Ki (Aprotinin (Bos taurus)) is listed as 288 nM, the Ki [1] is listed as 14 nM and the Ki [2] is listed as 0.4 nM. The Ki [3] was 6 nM, the Ki [4] was 15 nM and the Ki [5] was 5400 nM.

In the case of “Glandular kallikrein (from UniProt P06870)”, the Ki [6] is listed as 8.8 nM.

For Plasma kallikrein (from UniProt P03952), the Ki [7] is listed as 86 nM.

In the case of Plasmin (from UniProt P00747), the Ki [8] is given as 81 nM.

For “TFPI-2 (KD1-WT) KD1 (from UniProt P48307)”, the Ki (FXIa (Homo sapiens) [9]) is given as 15 nM.

In the case of “corn Hageman factor inhibitor (from UniProt P01088)”, the Ki (FXIa (Homo sapiens) [10]) is given as 5400 nM.

In the case of placental bikunin (from UniProt O43291), the Ki (FXIa (Homo sapiens) [11]) is listed as 6 nM.

In the case of protease nexin-2 (from UniProt P05067), the Ki (FXIa (Homo sapiens) [12]) is given as 0.4 nM.
